Assay: yeast display, Sf9 membrane polyspecificity reagent, FACS + sequencing; frameworks hold sequencing errors
Summary of the method: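 Galactose induction of a Saccharomyces cerevisiae BJ5465 synthetic nanobody display library ran 36–48 hours. The cells were then stained for 1 hour at 4 °C with 10% biotinylated, detergent-solubilized Sf9 membrane reagent, pulled down on streptavidin microbeads and FACS-sorted into low and high (top ~1%) gates on expression and reagent-binding fluorescence. Labels for polyreactivity follow the gate of origin.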

| Sequence | polyreactivity (PSR sort gate) |
| --- | --- |
| QVQLEESGGGLVQAGGSLRLSCAASGRTSYGYAMGWYRQAPGKERELVAAISSGGRTNYADSVKGRFTISRDNAKNTVYLQMNSLKPEDTAVYYCAKRYRYRPSYDYWGQGTQVTVSS | high polyreactivity |
| QVQLVESGGGLVQAGGSLRLSCAASGSTFTLYALGWYRQAPGKERELVASITWSGSPYADSVKGRFTISRDNAKNTVYLQMNSLIPEDTAVYYCNTDPRSVVGWYDYWGQGTQVTVSS | low polyreactivity |
| QVQLVESGGGLVQAGGSLRLSCAPSGSTFGDNAMGWYRQAPGKERELVAAISSGGGSTYYADSVKGRFTISRDNAKNTVYLQMNSLKPEDTAVYYCAADGTLTLYRYILDYWGQGTQVTVSS | low polyreactivity |
| QVQLVESGGGLVQAGGSLRISCDASGSTFYPYAMGWYRQAPGKERELVAAISSGGSTSYADSVKGRFTISRDNAKNTVYLQMNSLKPEDTAVYYCNASSPGAVPVYDYDYWGQGTQVTVSS | low polyreactivity |
| QVQLVESGGGLVQAGGSLRLSCAASGRILSKNAMGWYRQAPGKERELVAAIRGSTGITYYADSVKGRFTISRDNAKNTVYLQMNSLKPEDTAVYYCAAVVQGGFYWGQGTQVTVSS | high polyreactivity |
| QVQLVESGGGLVQAGGSLRLSCAASGRIFYTYAMGWYRQSPGKERELVAAISWGGGRTYYADSVKGRFTISRDNAKNTVYLQMNSLKPEDTAVYYCNAVSLKFTRKYDYWGQGTQVTVSS | high polyreactivity |
| QVQLVESGGGLVQAGGSLRLSCAASGSTFGGNDMGWYRQAPGKERELVAAISSGTSTNYADSVKGRFTISRDNAKNTVYLQMNSLKPEDTAVYYCAAVYWVLWQGSTYGYWGQGTQVTVSS | low polyreactivity |
| QVQLVESGGGLVQAGGSLRLSCAASGRTFAWYAMGWYIEAPGKERELVAAISSGGSTYYADSVKGRFTISRDNAKNTVYLQMNSLKPEDTAVYYCATRYAIAGWVGYYYWGQCTQVTVSS | low polyreactivity |
| QVQLVESGGGLVQAGGSLRLSCAASGFTFWRYAMGWSRQATGKERELVAVITWSGTRTYYADSVKGRFTISRDNAKNTVYLQMNSLKPEDTAVYYCAAYITDVAGRAYDYWGQGTQVTVSS | high polyreactivity |
| QVQLVESGGGLVQAGGSLRLSCAASGGTFSPYDMGWYRQAPGKERELVASITGSGGSTYYADSVKGRFTISRGNAKNTVYLQMNSLKPEETAVYYCAAQGYWTYWPYLLRLYDYWGQGTQVTVSS | low polyreactivity |
| QVQLEESGGGLVQAGGSLRLSCAASGRTFGRYDMGWYRQAPGKEREFVAAISTRGSRTYYADSVKGRFTISRDNAKNTVYLQMNSLKAEDTAVYYCAAEYLPRPYSWIYYYWGQGTQVTVSS | high polyreactivity |
| QVQLVESGVGLFQAGGSLRLSCAASGITFYSYAMGWYRQAPGKESQLVATISRSGSTYYADSVKGRFTISRDNAKNSVYLQMNSLKPEDTAVYYCAAYYAVRGATYRYGYWGQGTQVTVSS | high polyreactivity |
| QVQLVESGGGLVQAGGSLRLSCAASGRIFTVYAMGWYRQAPGKERELVAAISSSGGSTYYADSLKGRFTISRDNAKNSVFLQMNSLKPEDTAVYYCAKPRTYDKDKYDYWGQCTQVTVSS | high polyreactivity |
| QVQLVESCGGLVQAGGSLRLSCASSGLTFSRYAMGWSRQAPGKERELVAVISRSGGSTYYADSVKGRFTISRDNAKTTVYLHMNSLKPEDTAVYYCAVRAYIKMDYWGQGTQVTVSS | high polyreactivity |
| QVQLVESGGGLVQAGGSLRLSCAASGFIFSKYTMGWSRQAPGKERELVASISWSGGSTYYADSVKGRFTISRDTAKNTVFLQMNSLKPEDTAVYYCAAEAWGWVFGGYYYWGQGTQVTVSS | low polyreactivity |
| QVQLVESGGGLVQAGGSLRLSCPASGLIIGVYAMGWYRQEPGKERELVAAITDGGSTYYADSVKGRFTISRDNAKNTVYLQMNSLKPEDTAVYYCNAEFRSSDYDYWGQGTQVTVSS | low polyreactivity |
| QVQLVESGGGLVQAGGSLRLSCAASGRILYRYAMGWYRQAPGKERELVAAITWRGGTTYYADSVKGRFTISRDNAKNTVYLQMISLKPEDTAVYYCNSDWWRTLESDYWGQGTQVTVSS | low polyreactivity |
| QGQLVESGGGLVQAGGSLRLSCAASGTFSPYAMGWYRPAPGKERELVAVITSNTGRTYADSVKGRFTISRDNAKNTVYLQMNSLKPEDTAVYYCASRSTYRHWYRTGSRFDYWGQGTQVTVSS | low polyreactivity |
| QVQLVESGGGLVQSGGSLRLSCAASGFTFPNNAMGWYRLAPGKERELVAAITWSGGSTYADSVKGRFTISRDNAKNTVYLQMNSLKPEETAVYFCNTRGTYLSKTLPSAYDYWGQGTQVTVSS | low polyreactivity |
| QVQLVESGGGLVQAGGSLRLSCAASGRIFGHYVMGWYRQAPGKERELVAAITWRGGSTYYADSVKGRFTISRDNAKNTVYLQMNSLKPEDTAVYYCNRALPGYGLRRDYWGQATQVTVSS | high polyreactivity |
| QVQLVESGGGLVQAGGSLRLSCAASGSIFTGYAMGWYRQAPGKERELVAAISYSTGRTYYADSVKGRFTISRDNAKNTVYLQMNSLKPEDTAVYYCAARYREQYDYWGQGTQVTVSS | low polyreactivity |

| Sequence | polyreactivity (PSR sort gate) |
| --- | --- |
| QVHLVESGGGLVQAGGSLRLSCAASGSTFYVYAMGWYRQAPGKERELVAAISTSTGNTYYADSVKGRFTISRDNAKNTVYLQMNSLKPEDSAVYDCANSGSSSHYYSWGQGTQVTVSS | low polyreactivity |
| QVQLVESGGGLVQSGGSLRLSCAASGSTFLWYAMGWYRPAPGKERELVASISRGGGTDYADSVKGRFTISRDNAKKTVYLQMNSLIPEDTAVYYCAATGVYRYDHWGQGTQVTVSS | low polyreactivity |
| QVQLVESGGGLVQAGGSLRLSCAASGFIFGVYAMGWYRQAPGKERELVAAITSSGTSTYYADSVKGRFTISRDNAKNTVYLQMNSLKPEDTAVYYCNKSGYIYHRKLWTPYYYWGQGTQGTVSS | low polyreactivity |
| QVQLVESVGGLVQAGGSLRISCAASGFIFKSYSMGWYRQAPGKERELVAAISWIGGRTYYADSVKGRFTISRDNAKYTVYLQMNSLKPEDTAVYYCAKVVKYQSGGGLEYWGQGTQVTVSS | high polyreactivity |
| QVQHVESGGCLVQAGGILRLSCAASGSIFQSNTMGWYRQAPGKVRELVAYISNGGTTTYANSVKGRFTISRDNAKTTVYLQMNSLKPEDTAVYYCATYYWQYYEYDYWGQGTQVTVSS | low polyreactivity |
| QVQLVESGGGLVQAGGSLRLSCAASGFIFRSYVMGWYRQAPGKEREFVAVITSSGGRTYYADSVKGRFTISRDNAKNTVYLQMNSLKPEDTAVYYCAATRRYPPRRVWYDYWGQGTEVTVSS | high polyreactivity |
| QVQLQESGGGLVQAGGDLRLSCAASGNIFRDYIMGWYRQAPGKELEFVAGIDRGANTNYADSVKGRFTISRDNAKNTVYLQMNSLKPEDTAVYYCAVHTAIVPDFIYWGQGTQVTVSS | low polyreactivity |
| QVQLVESGGGLVQAGGSLRLSCAASGSIFTYYAMGWYRQAPGKERELVAGITRGGSTYYAESVKGRFTISRDNAKNTVYLQMNSLKPEDTAVYYCNARWVLFYTGDGQEHDYWGQGTQVTVSS | low polyreactivity |
| QVQLVESGGGLVQAGGSLRLSCAASGNNIVINAMGWYRPAPGKERELVAAINWTGGNTYYADSVKGRFTISRDNAKNTVYLQMNSLKPEDSAVYYCAADRRWFVWGLGYWGQGTQVTVSS | low polyreactivity |
| QVQIVESGGGLVQAGGSLRLSCAASGLTFIRYAMGWYRQAPGKERELVAAISTSGGRTYYADSVKGRFTISRDNAKNTVYLQMNSLKPEDTAVYYCAKYQSTGYTQSSYDYRGQGTQVTVSS | high polyreactivity |
| QVQLVESGGGLVQAGGSLRLSCAASGITFSYYAMGWYRQAPGKEREFVAAINWDGGSTYYADSVKGRFTISRDNAKNTVYLQMNSLKPEDTAVYYCNADEFEYIYVDTLNYGDDYWGQGTQVTVSS | low polyreactivity |
| QVQLVESGGGLVQAGGSLRLSCAASGRIFPYYAMGWYRQAPGKDRELVAANSYRGPRTSYADSVKGRFTISRDNAKNTAYLQRNSLKPEDTAVYYCAAVSVSWRGGRSSYEYWGQGTQVTVSS | high polyreactivity |
| QVQLVESGGGLVQAGGSLRLSCAASGRTFVSYTMGWYRQAPGKERELVAAISSGGSTTYADSVKGRFTISRDNAKNTVYLQMNSLKPEDTAVYYCNARYGWSYWSKYDYWGQGTQVTVSS | high polyreactivity |
| QVQLVESGGGLVQAGGSLRLSCAASGRTFAVYAMGWYRPAPGKERELVAGITSGGSTNYADSVKGRFTISRDNAKNTVYLQMNSLKPEDTAVYYCAAENVYAGFGFVSIGDYWGQGTQVTVSS | low polyreactivity |
| QDQLVESGGGLVQAGGSLRLSCAASGLTFQSYAIGWYRQAPGKERELVATISNGSSTYYADSVKGRFTISRDNAKNTVYLQMNSQKPEDTAVYYCAADGYLHAGHWRTYGYYYWGHGTQVTVSS | low polyreactivity |
| QVQLVESGGGLVQAGGSLRLSCVASGLTFYYYAMGWYRQAPGKERELVAAISSGGSTYYADSVKGRFTISRDNAKNTVYLQMNSLKPEDTAVYYCNTYRYRVWGLMYWGQGTQVTLSS | high polyreactivity |
| QVQLVESGGGLVQAGGSLRLSCAASGSIFGRNAMGWYRQAPGKERELVAVITSTGGSTYYADSVKGRFTISRDNAKNTVYLQMNSLKPEDTAVYYCAARTRYRYGYWGQGTQVTVSS | high polyreactivity |
| QVQLVESGGGIVQAGGSLRLSCAASGFTFYYNAMGWYRQAPGKERELVAAISYRGGSTYYADSVKGRFTISRDNAKNTVYFQMNSLKPEDTAVYYCATRDPAFYRRYDYWGQATQVTVSS | high polyreactivity |
| QVHLVDSGGGLVQAGGSLRLSCAASGRTFYYYAMGWYRQAHGKERELVATISRTGTTNYADSVKGRFTISRDNAKNTVYLQMNSLKPEDTAVYYCAAERATPWPKNDYWGQGTQVTVSS | high polyreactivity |
| QVQLEESGVGLVQAGGSLRLRCAASGSTVTDNTKGWYRQAPGKERELVAPISGVGSTYYSESVKGRFTISRDNAKNTVYFQMHSLKPEDTAVYYCNVYWGPFYRSGDKYGYWGQGTQVTVSS | low polyreactivity |

From the nanobody polyreactivity screen of Harvey et al. (2022)
